Reference: patent US20080113907A1, “Uses Of Galectin-2” (Charite-Universitat-Smedizin Berlin, priority 2004, published 2008)

Legend:
[1] = system: T cells; experiment: Binding of biotinylated Gal-2 to T lymphocytes (flow cytometry); design: species or system human
Method: To measure Gal-2 binding to T lymphocytes, aliquots of cell suspensions were kept as controls or stimulated for 1, 6, 12, 24, 48, and 72 h with anti-CD3 mAb or PMA and PHA and incubated in the presence of 5 μg/ml biotin-labeled Gal-2. Cells were then harvested, washed and stained with anti-CD3-FITC mAb and APC-labeled streptavidin (Biosource) followed by flow cytofluorometric analysis. Cells cultured in the absence of biotin-labeled Gal-2 and stained with FITC-labeled mouse IgG (BD Pharmingen) or APC-labeled streptavidin served as isotype controls. Each analysis was performed on at least 20,000 events.

[2] = system: PBT; experiment: Analysis of T cell cycling (DNA content, cyclin B1, cell cycle regulators); format: cell-based, human
Method: (§1) For immunoblotting cells were washed in PBS, and lysed in cell lysis buffer (1% Triton-X, 0.5% NP-40, 0.1% SDS, 0.5% sodium deoxycholate, 5 mM EDTA, 50 mM and 50 mM protease- and phosphatase-inhibitor cocktail 2, 1 mM PMSF, 100 μg/ml trypsin-chymotrypsin inhibitor, 100 μg/ml chymostatin in PBS). The concentration of proteins in each lysate was measured using the Bio-Rad protein assay (Bio-Rad Laboratories, Hercules, Calif.). Equivalent amounts of protein (10 μg) were fractionated on a 10-20% Tris-glycine gel and electrotransferred to a nitrocellulose membrane (Novex, San Diego, Calif.). Membranes were blocked with 5% milk in 0.1% Tween 20-PBS (Fisher Scientific, Hanover Park, Ill.), followed by incubation for 60 m in at room temperature with the indicated primary antibody. The membranes were washed six times with 0.1% Tween 20-PBS and then incubated for 1 h with the appropriate horseradish peroxidase-conjugated secondary antibody (Santa Cruz Biotechnology), washed, and incubated with the chemiluminescent substrate (Perkin-Elmer, Carlsbad, Calif.) for 5 minutes. The membranes were then exposed to film (Amersham, Arlington Heights, Ill.).
Flow cytometry was performed after staining for DNA content, and cyclin B1, essentially as previously described (21). Briefly, cells were washed twice with PBS, adjusted to 1×10^6 cells/sample and fixed in 90% Methanol at −20° C. After fixation, cells were washed twice with PBS, incubated for 45 min at 4° C. with a cyclin B1-FITC conjugated monoclonal antibody. After the final wash, cells were resupended in PBS and 5 μl of RNase (0.6 μg/ml, 30-60 Kunitz Units, Sigma), incubated at 37° C. for 15 min and the chilled on ice. One hundred and twenty five microliters of PI (200 μg/ml) were added prior to analysis by flow cytometry. Each analysis was performed on at least 25.000 events.

[3] = system: acute and chronic DSS colitis; experiment: Dose finding studies in acute and chronic DSS colitis; format: in vivo, BALB/c mice
Method: Acute and chronic colitis were induced in BALB/c mice by adding 5% DSS to the drinking water for 7 days to induce acute colitis, or for 3 cycles of 7 days DSS following 7 days without DSS to induce chronic colitis, respectively (Siegmund B, Lehr H A, Fantuzzi G. Leptin: a pivotal mediator of intestinal inflammation in mice. Gastroenterology 2002; 122: 2011-2025). Animals with acute or chronic colitis were treated i.p. with either physiological NaCl as control or Gal-2 once daily (od), twice daily (bid) or three time daily (tid) for 10 days. In one experimental protocol Gal-2 and NaCl 0.9% were injected subcutaneously. Gal-2 doses ranging from 0.5-2 mg/kg body weight in individual doses and total daily doses of 3 mg/kg body weight and different dosing regimens were evaluated. Tacrolimus (1 mg/kg bodyweight), Infliximab (10 mg/kg bodyweight), prednisolone (1 mg/kg bodyweight), all well-known modulators of experimental colitis and human inflammatory bowel diseases were used as positive controls.
PBT were isolated, stimulated with CD3 for 3 days and cytokine secretion was determined by cytometric bead array (CBA) analysis as described previously (Sturm A, Rilling K, Baumgart D C, Gargas K, Abou-Ghazale T, Raupach B, Eckert J, Schumann R R, Enders C, Sonnenborn U, Wiedenmann B, Dignass A U. Escherichia coli Nissle 1917 distinctively modulates T-cell cycling and expansion via toll-like receptor 2 signaling. Infect.Immun. 2005; 73: 1452-1465.) Mucosal recruitment of granulocytes was assessed by Myeloperoxidase activity (Rath H C, Herfarth H H, Ikeda J S, Grenther W B, Hamm T E, Jr., Balish E, Taurog J D, Hammer R E, Wilson K H, Sartor R B. Normal Luminal Bacteria, Especially Bacteroides Species, Mediate Chronic Colitis, Gastritis, and Arthritis in HLA-B27/Human beta 2 Microglobulin Transgenic Rats. Journal of Clinical Investigation 1996; 98: 945-953).

[4] = system: PBT; experiment: Apoptosis regulator proteins by immunoblotting and flow cytometry; format: cell-based, human
Method: as §1
(§2) For surface staining, cells were washed twice in ice-cold PBS and 1×10^6 cells were resuspended in flow buffer (HBSS containing 1% BSA and 0.1% sodium azide). Cells were incubated with the respective mAb at predetermined saturating concentrations or with isotype-matched nonspecific mouse mAb (DAKO) for 30 min at 4° C., washed twice with flow buffer, and incubated with FITC-conjugated goat anti-mouse IgG for 30 min at 4° C. The cells were again washed twice with flow buffer, fixed in 1% paraformaldehyde and analyzed by a single laser flow cytometer (FacsCalibur, […]), using Cell Quest software (BD Pharmingen). Cells stained with a negative control Ab were gated to contain <2% positive cells. To perform analysis of intracellular proteins, cells were washed twice with PBS, adjusted to 1×10^6 cells per sample, and fixed in 90% methanol at −20° C. After fixation, cells were washed twice with PBS and incubated with a monoclonal mouse anti-bax, Bcl-2, Rb, Cyclin A, p21, p27, or p53 antibody for 45 minutes at 4° C., followed by an incubation with a goat anti-mouse FITC-conjugated mAb (Biosource) for 45 minutes at 4° C. Thereafter cells were washed and analyzed by flow cytometry as described above. The background level of immunofluorescence was determined by incubating cells with FITC-conjugated mouse IgG (isotype control).

[5] = system: T cells (PBT, LPT); experiment: Integrin accessibility on T cell surface (flow cytometry); format: cell-based, human
Method: as §2

B1: galectin-2: β-galactoside binding lectin, non-covalent dimer with subunits of about 14 kDa; recombinant human or rat (SEQ ID NO:1, 2) (protein)
chain: MAGELEVKNMDMKPGSTLKITGSIADGTDGFVINLGQGTDKLNLHFNPRFSESTIVCNSLDGSNWGQEQREDHLCFSPGSEVKFTVTFESDKFKVKLPDGHELTFPNRLGHSHLSYLSVRGGFNMSSFKLKE
time bound to T cells [1]: more than 72 hours
binding to T cells after stimulation ([1]; PMA/PHA or anti-CD3 antibody): increase in cell staining
binding to T cells ([1]; unstimulated T cells): bound to unstimulated T cells in a β-galactoside-specific manner
cyclin B1 levels / cell cycle progression ([2]; anti-CD3 activated PBT): unchanged cyclin B1 levels
cell cycle phase distribution ([2]; anti-CD3 activated PBT, 25, 50, 100 μg/ml): comparable
protein levels of cyclin D2, Rb, cyclin A, p21, p27, p53 ([2]; western blot, 72 h): did not alter protein levels
effect on disease activity (DAI) ([3]; acute and chronic DSS colitis, i.p., different dosing intervals and doses): significantly reduced disease activity
safety and toxicity ([3]; acute and chronic DSS model): did not reveal any abnormalities
myeloperoxidase, mucosal granulocyte infiltration ([3]; data not shown): significant reduction of mucosal granulocyte infiltration
deaths ([3]; doses 1-3 mg/kg body weight): no deaths were observed
human versus rat Gal-2, disease activity ([3]; equivalent doses and treatment regimens): No significant differences were observed
improvement of disease activity ([3]; optimal dose 2×1 mg/kg bodyweight): more than 250%
total daily dose range with largest benefit on disease activity ([3]; per day): 1.5-3 mg/kg bodyweight
effect on disease activity (DAI) ([3]; subcutaneous (sc) administration): only in minor and not significant improvement of disease activity
effects compared with positive controls ([3]; tacrolimus 1 mg/kg, infliximab 10 mg/kg, prednisolone 1 mg/kg): comparable with the potent immunomodulator tacrolimus and more potent as the effects observed for prednisolone and infliximab
histological analyses of intestinal injury and inflammation ([3]; versus control animals): significant reduction of intestinal injury and inflammation
bax protein expression ([4]; 0, 25, 50 μg/ml, 48 h): increases
bcl-2 protein expression ([4]; 0, 25, 50 μg/ml, 48 h): significantly reduces
cytochrome c release ([4]; data not shown): dose-dependently increased cytochrome c release in activated, but not resting T cells
DNA-fragmentation factor (DFF) ([4]; immunoblotting): dose-dependently upregulated
β4 integrin accessibility ([5]; CD3 activated PBT): neither galectin-1 nor galectin-2 changed
integrin α5 accessibility ([5]; CD3 activated PBT, 50 μg/ml): downregulated
integrin β1 accessibility ([5]; CD3 activated PBT, 50 μg/ml): downregulated
integrin a5 accessibility ([5]; CD3 activated PBT, second statement): slightly upregulated
integrin β1 accessibility ([5]; intestinal T cells (LPT)): failed to modulate
